From article PMC7062162

Target: HA 2NΔ peptide-DR1 complex (human | influenza A virus) (UniProt P03437)

Question: With “soluble recombinant HLA-DM (DMA*0101/DMB*0101) (complex)” as the substance, how does the kcat, fold change against the full HA peptide complex read?
Answer: The kcat, fold change against the full HA peptide complex was 5 fold.
